From the nanobody polyreactivity screen of Harvey et al. (2022)

Assay: yeast display, Sf9 membrane polyspecificity reagent, FACS + sequencing; frameworks hold sequencing errors
In short: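 Synthetic nanobody libraries on Saccharomyces cerevisiae BJ5465 were galactose-induced for 36–48 hours, stained 1 hour at 4 °C with 10% biotinylated, detergent-solubilized Sf9 membrane reagent and enriched on streptavidin microbeads. FACS then separated cells into low and high (top ~1%) gates by anti-HA (expression) and streptavidin (reagent binding) fluorescence. Genes were colony-PCR amplified, MiSeq 2 × 250 sequenced and CDR-length filtered. A clone's polyreactivity label is that of its gate of origin.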

QVQLVESGGGLVQAGGSLRLSCAASGFTFSQYAMGWYRQAPGKERELVAAINSRGGSTYYADSVKGRFTISRDNAKNTVYLQMNSLKPEDTAVYYCNAVISGYPYEYDYWGQGTQVTVSS
polyreactivity (PSR sort gate): high polyreactivity

QFQLVESGVGLVQAGASLRLSCAASVLTFVGNAMGWYRQAPGKERELVDAISKRGGRTYYADSVKGRFRISRDNAKNTVYLQMNSLKPEDTAVYYCAATIKAYPTPLLGDYWGQGTQVTVSS
polyreactivity (PSR sort gate): high polyreactivity

QVQLVESAGGLVQAGGSLRLSCAASGRTFGGYAMGWYRQAPGKERELVASITSGGSTYYADSVKGRFTISRDNAKNTVYLEMNSLKPEDTAVYYCAADTYFETSTRAIPSNDYWGQGTQVTVSS
polyreactivity (PSR sort gate): low polyreactivity

QVQLQESAGGLVQAGGSLRLRCSASGYISCDASMGWYRQAAGKERELAASITKGSSTNYADSVKGRFTIRDNAKNTVYLQMNSLKPEDTAVCYCAVTYPYWGDYTYWGQGTQVTVSS
polyreactivity (PSR sort gate): low polyreactivity

QVQLVESGGGLVQAGGSLRLSCAASGSTFGVYAMGWYRQAPGKERELVAAINARGTRTRYADSVKGRFTISRDNAKNTVYLQMTSMKPEDTAVYYCAAVWYGYYSIDTDGYWGQGSQVTVSS
polyreactivity (PSR sort gate): high polyreactivity

QVQLVESGGCLVQAGGSLRLSCAASGYIFDHYAMGCYRQAPGKERELVAAISRSAGSTYYADSVKGRFTISRDNAKNTVYLQMNSLKPEDTAVYYCNAVVAVRSWRKYEYWGQGTQVTVSS
polyreactivity (PSR sort gate): high polyreactivity

QDQLVESGGGLVQAGGSLRLSCSASGSIVGLYAMGWYRQAPGKERELVAAITASDGYTYYADSVKGRFTNSRDNAKNTVYLQMNSLKPEDTAVYYCNADAYSGYFLFDYWGQGTQVNVSS
polyreactivity (PSR sort gate): low polyreactivity

QVHLVESGGGLVQAGGSLRLSCAASGRTFPPYAMGGYRQAPGKERELVAAISIVGSTYYADSVKGRFTISRDNAKNTVYLQMNSLKPEDTAVYYCAADVAGYYKLYDYWGQGTQVTVSS
polyreactivity (PSR sort gate): high polyreactivity

QVLLEESGGGLVQAGGSLRLSCAASGRIFLRKVMGWYRQAPGKERELVAAISLSGASTYYADSVKGRFTISRDNAKNTVYLQMNCLKPEDTAVYYCAADITILYDYWGQGTQVTVSS
polyreactivity (PSR sort gate): low polyreactivity

QVQLVESGGGLVQAGGSLRLSCPASGFYAMGWYRQAPGKERELVAAIRGSGSSTYYADSVKGRFTISRDNAKNTVYLQMNSLKPEDTAVYYCAKQGYLVWSGWRWYDYWGQGTQVTVSS
polyreactivity (PSR sort gate): low polyreactivity

QVQLVESGGGLVQAGGSLRLSCAASGSTFVKNDMGWYRQAPGKERELVAANSGGSTNYADSVTGRFTISRDNAKNTVYLQMNSLKPEDTAVYYCNAAVITKYAGRGGRPTGRMYYWGQGTQVTVSS
polyreactivity (PSR sort gate): low polyreactivity

QVQLVESGGGLVQAGGSLRLSCAASGSTFSYYTMGWYRPAPGKERELVAAITRRGDSTYADSVKGRFTISRDNAKNTGYLQMNSLKPEATAVYYCAADASVGVSGMDYWGQGTQVTVSS
polyreactivity (PSR sort gate): low polyreactivity

QVQLVESGGGLVQAGGSLRLSCAASGRIFGTNAMGWYRQAPGKERELVAAITWNADDTYYADSVKGRFTISRDNAKNTVYLQMNSLKPEDTAVYYCAADSYEGYYYWGQGTQVTVSS
polyreactivity (PSR sort gate): low polyreactivity

QVQLVESGGGLDQAGGSLRLSCAASGSTFGTYAMGWYRQAPGKEWQLVADITGSGGSTYYADSVKGRFTISRDNAKNTVYLQMNSLKPEDTAVYYCAGEYGLGDDTAYGYWGQGTQGTVSS
polyreactivity (PSR sort gate): low polyreactivity

QVQLVESGGGLVQAGGSLRLSCASSGLTFTPNAMGWYRQAPGKEREFVAAITWRGGRTYYADSVKGRFTISRDNAKNTVYFQMKSLNPEDTAVYYCAVTYRPTYQLDYWGQGTQVTVSS
polyreactivity (PSR sort gate): high polyreactivity

QVQLVESGGGLVQAGGSLRLSCAASGSTLAPYVMGWYRQAPGKERELVSVISTRTGRTSYADSVKGRFTLSRDNAKNTVYLQMNSLKPEDTAVYYCNAQWVSWWSLYDYWGQGTQVTVSS
polyreactivity (PSR sort gate): high polyreactivity

QVQLVESGGGLVQAGGSLRLICAGSGRIFYRYPMGWYRQAPGKERELVAAITVRGGSTYYADSVKGRFTISRDNAKNTVYVQRHSLKPEDTALYYCATGLGVLYDYWYEVEFDYWGQGTQVSVSS
polyreactivity (PSR sort gate): low polyreactivity

QVQLVESGGGLVQAGGSLRLSCAASGSIFFYYTMGWYRQAPGKEREFVAAISGSGGSTYYADSVKGRFTISRDNAKNTVYLQMNSLKPEDTAVYYCAAGLRLDLGAMYYWGQVTQVTVSS
polyreactivity (PSR sort gate): low polyreactivity

QVQLQESGGGLVQAGGSLRLSCAASGSNFDTPTMGWYRQAPGKERELVASIAYDDNTYYADSVKGRFTISRYNAKNTVYLQMNSLKPGDTAVYYCAVTDRIYYYFVYWGQGTRVTVSS
polyreactivity (PSR sort gate): high polyreactivity

QVQLVESGGGLVQAGGSLRLSCAASGSIFYGYAMGWYRQAPGKERELVAAISWSGTSTYYADSVKGRFTISRDNAKNTVYLQMNSLKPEDTAVYYCAADQFQGNSGFEYWGQGTQVTVSS
polyreactivity (PSR sort gate): low polyreactivity

QVQLVESGGGLVQAGGSLRLSCAASGSIFTGYAMGWYRQAPGKDRELVAAISWRGGGTYYADSVQGRFTISRDNAKNTVYLQMNSQKPEDTAVYDCAAVTKFGQYAPGSKGYGYWGQATQVTVSS
polyreactivity (PSR sort gate): low polyreactivity

QVQLVESGGGLVQAGGSLRLSCAASGRTIGINAMGWYRQAPGKERELVAVISFGDGGTYYADSVKGRFTISRDNAKNTVYLQMNSLKPEDTEVYYCATDYQSTSVWGGHFVINPYDYWGQGTQVTVSS
polyreactivity (PSR sort gate): low polyreactivity

QVQLVESGGGLVQAGGSLRLRCAASGSIFNSYAMGWYRQAPGKERELVAAISIRGTRTYYADSVKGRFTISRDNAKNTVYLQMNSLKPEDTAVYYCAADASYTEGMDYWGQGTQVTVSS
polyreactivity (PSR sort gate): high polyreactivity

QVQLVESGGGLVQAGGSLRLSCAASGFTFSRYAMGWYRQAPGKERELVAAIRLRDGITYYADSVKGRFTISRDNAKNTVYLQMISLKPEDTAVYYCNAVNRTPVSQLDYWGQGTQVTVSS
polyreactivity (PSR sort gate): high polyreactivity

QVQLVESGGGLVQAGGSLRLSCAASGFIFSKYAMGWYRQAPGKERELVAAITSGGSTYYADSVKGRFTISRDNAKNTVYLQMNSLKPEDTAVYYCAADSYVPNLNYDYWGQGTQVNVSS
polyreactivity (PSR sort gate): low polyreactivity

QVKLVESGGGLVQAGGSLLLSCAASGRTFYRYAMGWYIQAPGKERELVARISSGGGTYYADSVKGRFTISRDNAKNTVYLQMNSLKPEVTAVYYCNADVYRWSGSYTGWDSWHDYWGQGTQVSVSS
polyreactivity (PSR sort gate): low polyreactivity

QVQLVESGGGLVQAGGSLRLSCAASGRIFPRYAMAWYRQAPGKERELVARITRRGGITYYADSVKGRFTISRDNAKNTVYLQMNSLKPEDTAVYYCNVDYYRGGDFSYGYDYWGQGTQVTVSS
polyreactivity (PSR sort gate): high polyreactivity

QVQLVESGGGLVQAGGSLRLSCAASGFIFAYNAMGWYRQAPGKERELVAAISSRGSRTYYADSVKGRFTISRDKAKNTVYLQMNSLKPEDTAVYYCAARYSRGGFGYWGQGTQVTVSS
polyreactivity (PSR sort gate): high polyreactivity

QVQLVESGGGLLQAGGSLRLSCAATGFIFWYYAMGWYRQAPGKEREFVADISSGGSTNYADSVKGRFTISRDNAKNTVYLQMNSLKPEDTAVYDCSKDNYPYHSTVLAVIYDYWGHGTQVTVSS
polyreactivity (PSR sort gate): low polyreactivity

QVQLVESGGGLVQAGGSLRLSCAASGSTFRRYAMGWYRQAPGKERELVASISRSGGSTYYADSVKGRFTISRDNAKNTVYLQMNSLKPEDTAVYYCAKKPYKSAYDYSSAYDYWGQGTQVTVSS
polyreactivity (PSR sort gate): high polyreactivity

QVQLVESGGGLVQAGGSLRLSCAASGRTFGPYVMGWYRQAPGKERELVAAISFSGGSTYYADSVKGRFTISRDNAKNTVYLQMNSLKPEDTAVYYCAAPATRPYYTGYDYWGQGTQVTVSS
polyreactivity (PSR sort gate): high polyreactivity

QVQLVESGGGLVQAGGSLRLSCADSGSTFYHNAMGWYRQAPGKERELDDAIRFSGTSTYYADSVKGRFTISRDNAKNTVYLQMNSLKPEDTAVYYCAAEVSSPAQREFDYWGQGTQVTVSS
polyreactivity (PSR sort gate): low polyreactivity

QVQLVESGGGLVQAGGSLRLSCAASGSTYQNAMGWYRQAPGKEREFVAAISWSGGSTYYADSVKGRFTISRDNAKNTVYLQMNSLKPEDTAVYYCAAYSYFSPRYDYWGQGTQVTVSS
polyreactivity (PSR sort gate): high polyreactivity

QVQLVESGGGLVQGGGSLRLRCAASGRSFKWYAMVWYRQAPGKDRELVAGISRGAGRTYYADSEKGRFTISRDNAKNTVYLQMNSLKADDTAVYYCAAVPSYHSTSPFYYWGLGTQVTVSS
polyreactivity (PSR sort gate): high polyreactivity

QVQLVESGAGLVQAGGSLRLSCAASGRIFYWNAMGWYTQAPGKEREFVAAISWSGGSTYADSVKGRFTISRDNAKNTVYLQMNSLKPEDTAVYYCATRVSRSFRAYDYWGQGTQVTVSS
polyreactivity (PSR sort gate): high polyreactivity

QVQLVESGGGLVQAGGSLRLSCAASGSIFALYTMGWYRQAPWKERELVAGIRTGRSTNYADSVKGRFTISRDNAKNTVYLQMNSLKPEDTAVYYDYWGQGTQVTVSS
polyreactivity (PSR sort gate): low polyreactivity

QVQLVESGGGLVQAGGSLRLSCAASGSIFDTNAMGWYRQAPGKERELVAAINDSGGSTDYADSVKGRFTISRDNAKNTVYLQMNSLKPEDTAVYYCAADIYYTGYNGPEYYWVGMDYWGQGTQVTVSS
polyreactivity (PSR sort gate): low polyreactivity

QVQLVESGGGLVQAGGSLRLSCAASGSIFVNKGMGWYRQAPGKERELVAAIRLSTGSTYYADSVKGRFTISRDNAKNTVYLKINSLKREDTAVDDCATRYYIWGNWGQGTQVTGSS
polyreactivity (PSR sort gate): high polyreactivity

QVQLVDSGGGLVQAGGSLRLSCAASGIIFVGYAMGWYRQAPGKERELVAAITYNVGSTYYADSVKGRFTISRDNAKNTVYLQMKSLKPEDTAVYYCNADRYPFFDLLISRYGSNPYDYWGQGTQVTVSS
polyreactivity (PSR sort gate): low polyreactivity

QVQLVESGGGLVQAGGSLRLSCAASGSTFAWYAMGWYRQAPGKERELVAAISSTVGSTYYADSVKGRFTISRDNAKNTVYLQLKSLKPEDTAVYYCARYYYRYYIRQLALGASTYDYWGQGTQVTVSS
polyreactivity (PSR sort gate): high polyreactivity

QVQLVESGGGLVQAGGSLRLSCAASGLTFYIYAMGWYRQAPGKERELVASITWSTTSTSYADSVKGRFTISRDNAKNTVYLQLKSLKPEDTAVYYCNADVPGYFLYDDSYEYWGQGTQVTVSS
polyreactivity (PSR sort gate): low polyreactivity

QVQLVESGGGLVQAGGTLRLSCAASGRTFTIYAMGWYRQAPGKEREWVAAITSGGSSYYADSVKGRFTISRDNATKTDYLQMNSLKPEDTAVEYCARGYAVSLVSRYYYWGQGTQVTVSS
polyreactivity (PSR sort gate): low polyreactivity

QVQLVESGGGLVQAGGTLRLSCAASGSIFYPNAMGWYRQAPGKERELVAASSWTGGSTRYADSVKGRFTISRDIAKNTVYLQMNSLKPEDTAVYYCAALYVYRPRTPYGYSGQGTQVTVSS
polyreactivity (PSR sort gate): high polyreactivity
